# Laboratory results taken from publication PMC9352680, “A comprehensive thermodynamic model for RNA binding by the Saccharomyces cerevisiae Pumilio protein PUF4”.
# T1: PUF4 RNA-binding domain (Saccharomyces cerevisiae, UniProt P25339 537-888)
# T1 sequence: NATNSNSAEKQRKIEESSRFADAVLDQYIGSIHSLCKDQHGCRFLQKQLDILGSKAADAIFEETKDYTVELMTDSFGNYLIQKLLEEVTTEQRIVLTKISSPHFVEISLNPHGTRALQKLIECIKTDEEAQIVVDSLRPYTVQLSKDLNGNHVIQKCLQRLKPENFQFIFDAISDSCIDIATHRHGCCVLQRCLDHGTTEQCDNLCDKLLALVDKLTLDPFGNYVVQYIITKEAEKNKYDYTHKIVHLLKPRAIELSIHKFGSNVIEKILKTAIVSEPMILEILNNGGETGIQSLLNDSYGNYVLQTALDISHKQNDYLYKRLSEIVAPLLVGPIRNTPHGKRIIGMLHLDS
# Biological target: T1, PUF4 RNA-binding domain
# Assay: Mg; RNA-MaP; 20 mM Na-HEPES pH 7.4, 30 mM KOAc, 0.75 mM MgCl2, 0.1% Tween-20, 5% glycerol, 0.1 mg/mL BSA, 2 mM DTT; 25 C; 0.0125-409.6 nM protein
# Settings: tags: N-His6-TEV cleaved; C-SNAP kept, Cy3B-labelled; label: tethered on chip by stalled RNA polymerase
row,Binder,Kd
1,UCUCUUAAACACUUAUUACUUCUCUU (ssRNA) [Id_ii_S1_P5E.4_K5.3_C5.2_[C-2A]_[T-1A]_H5.3_A5.1_F5.1_T5.2_[T11C]_[A12T]],> 2300 nM
2,UCUCUUAAACACUUAUUACAUCUCUU (ssRNA) [Id_ii_S1_P5E.4_K5.3_C5.2_[C-2A]_[T-1A]_H5.3_A5.1_F5.1_T5.2_[T11C]],> 2300 nM
3,UCUCUUCAACACUUAUUAUCUCUCUU (ssRNA) [Id_ii_S1_P5E.4_K5.3_C5.2_[T-1A]_H5.3_A5.1_F5.1_T5.2_[A12C]],> 2300 nM
4,UCUCUUAGACACUUAUUAAUUCUCUU (ssRNA) [Id_ii_S1_P5E.4_K5.3_C5.2_[C-2A]_[T-1G]_H5.3_A5.1_F5.1_T5.2_[T11A]_[A12T]],> 2300 nM
5,UCUCUUCAACACUUAUUAGCUCUCUU (ssRNA) [Id_ii_S1_P5E.4_K5.3_C5.2_[T-1A]_H5.3_A5.1_F5.1_T5.2_[T11G]_[A12C]],> 2300 nM
6,UCUCUUACACACUUAUUAAUUCUCUU (ssRNA) [Id_ii_S1_P5E.4_K5.3_C5.2_[C-2A]_[T-1C]_H5.3_A5.1_F5.1_T5.2_[T11A]_[A12T]],> 2300 nM
7,UCUCUUCCACACUUAUUACUUCUCUU (ssRNA) [Id_ii_S1_P5E.4_K5.3_C5.2_[T-1C]_H5.3_A5.1_F5.1_T5.2_[T11C]_[A12T]],> 2300 nM
8,UCUCUUAUACACUUAUUAAAUCUCUU (ssRNA) [Id_ii_S1_P5E.4_K5.3_C5.2_[C-2A]_H5.3_A5.1_F5.1_T5.2_[T11A]],744 nM
9,UCUCUUACACACUUAUUAUUUCUCUU (ssRNA) [Id_ii_S1_P5E.4_K5.3_C5.2_[C-2A]_[T-1C]_H5.3_A5.1_F5.1_T5.2_[A12T]],> 2300 nM
10,UCUCUUACACACUUAUUAGCUCUCUU (ssRNA) [Id_ii_S1_P5E.4_K5.3_C5.2_[C-2A]_[T-1C]_H5.3_A5.1_F5.1_T5.2_[T11G]_[A12C]],> 2300 nM
11,UCUCUUCAACACUUAUUAUGUCUCUU (ssRNA) [Id_ii_S1_P5E.4_K5.3_C5.2_[T-1A]_H5.3_A5.1_F5.1_T5.2_[A12G]],> 2300 nM
12,UCUCUUCCACACUUAUUAUAUCUCUU (ssRNA) [Id_ii_S1_P5E.4_K5.3_C5.2_[T-1C]_H5.3_A5.1_F5.1_T5.2],> 2300 nM
13,UCUCUUACACACUUAUUAUAUCUCUU (ssRNA) [Id_ii_S1_P5E.4_K5.3_C5.2_[C-2A]_[T-1C]_H5.3_A5.1_F5.1_T5.2],> 2300 nM
14,UCUCUUCAACACUUAUUAAAUCUCUU (ssRNA) [Id_ii_S1_P5E.4_K5.3_C5.2_[T-1A]_H5.3_A5.1_F5.1_T5.2_[T11A]],> 2300 nM
15,UCUCUUCGACACUUAUUAACUCUCUU (ssRNA) [Id_ii_S1_P5E.4_K5.3_C5.2_[T-1G]_H5.3_A5.1_F5.1_T5.2_[T11A]_[A12C]],> 2300 nM
16,UCUCUUAAACACUUAUUAUAUCUCUU (ssRNA) [Id_ii_S1_P5E.4_K5.3_C5.2_[C-2A]_[T-1A]_H5.3_A5.1_F5.1_T5.2],> 2300 nM
17,UCUCUUCAACACUUAUUACCUCUCUU (ssRNA) [Id_ii_S1_P5E.4_K5.3_C5.2_[T-1A]_H5.3_A5.1_F5.1_T5.2_[T11C]_[A12C]],> 2300 nM
18,UCUCUUCGACACUUAUUAUUUCUCUU (ssRNA) [Id_ii_S1_P5E.4_K5.3_C5.2_[T-1G]_H5.3_A5.1_F5.1_T5.2_[A12T]],> 2300 nM
19,UCUCUUCCACACUUAUUACCUCUCUU (ssRNA) [Id_ii_S1_P5E.4_K5.3_C5.2_[T-1C]_H5.3_A5.1_F5.1_T5.2_[T11C]_[A12C]],> 2300 nM

row,Binder,Kd
1,UCUCUUAGACACUUAUUAUUUCUCUU (ssRNA) [Id_ii_S1_P5E.4_K5.3_C5.2_[C-2A]_[T-1G]_H5.3_A5.1_F5.1_T5.2_[A12T]],> 2300 nM
2,UCUCUUCGACACUUAUUAAUUCUCUU (ssRNA) [Id_ii_S1_P5E.4_K5.3_C5.2_[T-1G]_H5.3_A5.1_F5.1_T5.2_[T11A]_[A12T]],> 2300 nM
3,UCUCUUAUACACUUAUUACUUCUCUU (ssRNA) [Id_ii_S1_P5E.4_K5.3_C5.2_[C-2A]_H5.3_A5.1_F5.1_T5.2_[T11C]_[A12T]],666 nM
4,UCUCUUAGACACUUAUUAAAUCUCUU (ssRNA) [Id_ii_S1_P5E.4_K5.3_C5.2_[C-2A]_[T-1G]_H5.3_A5.1_F5.1_T5.2_[T11A]],> 2300 nM
5,UCUCUUAUACACUUAUUACAUCUCUU (ssRNA) [Id_ii_S1_P5E.4_K5.3_C5.2_[C-2A]_H5.3_A5.1_F5.1_T5.2_[T11C]],489 nM
6,UCUCUUAAACACUUAUUAACUCUCUU (ssRNA) [Id_ii_S1_P5E.4_K5.3_C5.2_[C-2A]_[T-1A]_H5.3_A5.1_F5.1_T5.2_[T11A]_[A12C]],> 2300 nM
7,UCUCUUAUACACUUAUUAACUCUCUU (ssRNA) [Id_ii_S1_P5E.4_K5.3_C5.2_[C-2A]_H5.3_A5.1_F5.1_T5.2_[T11A]_[A12C]],464 nM
8,UCUCUUUGUAUUAUCGUCUCUU (ssRNA) [Ib_S1_P5E.1_K5.1_C5.1_H5.1_A5.1_F5.1_[T9C]_[A10G]_T5.1],30.6 nM
9,UCUCUUAUACACUUAUUACCUCUCUU (ssRNA) [Id_ii_S1_P5E.4_K5.3_C5.2_[C-2A]_H5.3_A5.1_F5.1_T5.2_[T11C]_[A12C]],606 nM
10,UCUCUUCAACACUUAUUACAUCUCUU (ssRNA) [Id_ii_S1_P5E.4_K5.3_C5.2_[T-1A]_H5.3_A5.1_F5.1_T5.2_[T11C]],> 2300 nM
11,UCUCUUUGUAUUAUACUCUCUU (ssRNA) [Ic_S1_P5E.1_K5.1_C5.1_H5.1_A5.1_F5.1_[T9A]_[A10C]_T5.1],2.48 nM
12,UCUCUUAUACACUUAUUAUCUCUCUU (ssRNA) [Id_ii_S1_P5E.4_K5.3_C5.2_[C-2A]_H5.3_A5.1_F5.1_T5.2_[A12C]],435 nM
13,UCUCUUCCACACUUAUUACAUCUCUU (ssRNA) [Id_ii_S1_P5E.4_K5.3_C5.2_[T-1C]_H5.3_A5.1_F5.1_T5.2_[T11C]],> 2300 nM
14,UCUCUUCCACACUUAUUACGUCUCUU (ssRNA) [Id_ii_S1_P5E.4_K5.3_C5.2_[T-1C]_H5.3_A5.1_F5.1_T5.2_[T11C]_[A12G]],> 2300 nM
15,UCUCUUCCACACUUAUUAGCUCUCUU (ssRNA) [Id_ii_S1_P5E.4_K5.3_C5.2_[T-1C]_H5.3_A5.1_F5.1_T5.2_[T11G]_[A12C]],> 2300 nM
16,UCUCUUAUACACUUAUUAUAUCUCUU (ssRNA) [Id_ii_S1_P5E.4_K5.3_C5.2_[C-2A]_H5.3_A5.1_F5.1_T5.2],330 nM
17,UCUCUUUGUAUUAUAGUCUCUU (ssRNA) [Ic_S1_P5E.1_K5.1_C5.1_H5.1_A5.1_F5.1_[T9A]_[A10G]_T5.1],0.924 nM
18,UCUCUUCAACACUUAUUAAUUCUCUU (ssRNA) [Id_ii_S1_P5E.4_K5.3_C5.2_[T-1A]_H5.3_A5.1_F5.1_T5.2_[T11A]_[A12T]],> 2300 nM
19,UCUCUUAUACACUUAUUAUUUCUCUU (ssRNA) [Id_ii_S1_P5E.4_K5.3_C5.2_[C-2A]_H5.3_A5.1_F5.1_T5.2_[A12T]],517 nM

row,Binder,Kd
1,UCUCUUCCACACUUAUUAAUUCUCUU (ssRNA) [Id_ii_S1_P5E.4_K5.3_C5.2_[T-1C]_H5.3_A5.1_F5.1_T5.2_[T11A]_[A12T]],> 2300 nM
2,UCUCUUAAACACUUAUUACGUCUCUU (ssRNA) [Id_ii_S1_P5E.4_K5.3_C5.2_[C-2A]_[T-1A]_H5.3_A5.1_F5.1_T5.2_[T11C]_[A12G]],> 2300 nM
3,UCUCUUAAACACUUAUUAAUUCUCUU (ssRNA) [Id_ii_S1_P5E.4_K5.3_C5.2_[C-2A]_[T-1A]_H5.3_A5.1_F5.1_T5.2_[T11A]_[A12T]],> 2300 nM
4,UCUCUUAUACACUUAUUAGCUCUCUU (ssRNA) [Id_ii_S1_P5E.4_K5.3_C5.2_[C-2A]_H5.3_A5.1_F5.1_T5.2_[T11G]_[A12C]],647 nM
5,UCUCUUAUACACUUAUUAAUUCUCUU (ssRNA) [Id_ii_S1_P5E.4_K5.3_C5.2_[C-2A]_H5.3_A5.1_F5.1_T5.2_[T11A]_[A12T]],517 nM
6,UCUCUUCCACACUUAUUAAAUCUCUU (ssRNA) [Id_ii_S1_P5E.4_K5.3_C5.2_[T-1C]_H5.3_A5.1_F5.1_T5.2_[T11A]],> 2300 nM
7,UCUCUUCAACACUUAUUAGAUCUCUU (ssRNA) [Id_ii_S1_P5E.4_K5.3_C5.2_[T-1A]_H5.3_A5.1_F5.1_T5.2_[T11G]],> 2300 nM
8,UCUCUUAUACACUUAUUACGUCUCUU (ssRNA) [Id_ii_S1_P5E.4_K5.3_C5.2_[C-2A]_H5.3_A5.1_F5.1_T5.2_[T11C]_[A12G]],907 nM
9,UCUCUUCGACACUUAUUAUCUCUCUU (ssRNA) [Id_ii_S1_P5E.4_K5.3_C5.2_[T-1G]_H5.3_A5.1_F5.1_T5.2_[A12C]],> 2300 nM
10,UCUCUUCAACACUUAUUAACUCUCUU (ssRNA) [Id_ii_S1_P5E.4_K5.3_C5.2_[T-1A]_H5.3_A5.1_F5.1_T5.2_[T11A]_[A12C]],> 2300 nM
11,UCUCUUUGUAUUAUCCUCUCUU (ssRNA) [Ib_S1_P5E.1_K5.1_C5.1_H5.1_A5.1_F5.1_[T9C]_[A10C]_T5.1],26.8 nM
12,UCUCUUCCACACUUAUUAACUCUCUU (ssRNA) [Id_ii_S1_P5E.4_K5.3_C5.2_[T-1C]_H5.3_A5.1_F5.1_T5.2_[T11A]_[A12C]],> 2300 nM
13,UCUCUUUGUAUUAUCUUCUCUU (ssRNA) [Ic_S1_P5E.1_K5.1_C5.1_H5.1_A5.1_F5.1_[T9C]_[A10T]_T5.1],18 nM
14,UCUCUUCGACACUUAUUACUUCUCUU (ssRNA) [Id_ii_S1_P5E.4_K5.3_C5.2_[T-1G]_H5.3_A5.1_F5.1_T5.2_[T11C]_[A12T]],> 2300 nM
15,UCUCUUAAACACUUAUUAUUUCUCUU (ssRNA) [Id_ii_S1_P5E.4_K5.3_C5.2_[C-2A]_[T-1A]_H5.3_A5.1_F5.1_T5.2_[A12T]],> 2300 nM
16,UCUCUUCGACACUUAUUAAAUCUCUU (ssRNA) [Id_ii_S1_P5E.4_K5.3_C5.2_[T-1G]_H5.3_A5.1_F5.1_T5.2_[T11A]],> 2300 nM
17,UCUCUUACACACUUAUUAAAUCUCUU (ssRNA) [Id_ii_S1_P5E.4_K5.3_C5.2_[C-2A]_[T-1C]_H5.3_A5.1_F5.1_T5.2_[T11A]],> 2300 nM
18,UCUCUUAAACACUUAUUACCUCUCUU (ssRNA) [Id_ii_S1_P5E.4_K5.3_C5.2_[C-2A]_[T-1A]_H5.3_A5.1_F5.1_T5.2_[T11C]_[A12C]],> 2300 nM
19,UCUCUUACACACUUAUUACCUCUCUU (ssRNA) [Id_ii_S1_P5E.4_K5.3_C5.2_[C-2A]_[T-1C]_H5.3_A5.1_F5.1_T5.2_[T11C]_[A12C]],> 2300 nM
